Kd, koff and kon data for 18 molecules are collected here from patent US20250188176A1.

B1: AHF21173 (Fab, V domains shown, not shown: small tags and cut ends)
VH: EVQLVESGGDLVKPGGSLRLSCVASGFTFRDYAMTWVRQAPGKGLQWVSLINGSGGKTYYADAVKGRFTISRDNAKNTLYLQMNSLRAEDTAVYYCAVDRKTKTIRPQYYGLWVWGQGTLVTVSS
VL: DIVMTQTPLSLSVSPGETASISCRSSQSLTYSIGYNYLDWYLQKPGQSPQGLIYLGHKRASGVPDRFSGSGSGTDFTLRISRVEANDTGVYYCMQGLQSPLSFGQGTKLEIKR
B2: AHF21178 (Fab, V domains shown, not shown: small tags and cut ends)
VH: EVQLVESGGDLVKPGGSLRLSCVASGFTFRDYAMTWVRQAPGKGLQWVSLINGSGGKTYYADAVKGRFTISRDNAKNTLYLQMNSLRAEDTAVYYCAVDRLTKTIRPQYYGLWVWGQGTLVTVSS
VL: DIVMTQTPLSLSVSPGETASISCRSSQSLTYSIGYNYLDWYLQKPGQSPQGLIYLGSKRASGVPDRFSGSGSGTDFTLRISRVEANDTGVYYCMQGLQSPLSFGQGTKLEIKR
B3: AHF21188 (Fab, V domains shown, not shown: small tags and cut ends)
VH: EVQLVESGGDLVKPGGSLRLSCVASGFTFRDYAMTWVRQAPGKGLQWVSLISGSGGKTYYADAVKGRFTISRDNAKNTLYLQMNSLRAEDTAVYYCAVDRLTKTIRPQYYGLWHWGQGTLVTVSS
VL: DIVMTQTPLSLSVSPGETASISCRSSQSLTYSIGYNYLDWYLQKPGQSPQGLIYLGSKRASGVPDRFSGSGSGTDFTLRISRVEANDTGVYYCMQGLQSPLGFGQGTKLEIKR
B4: AHF21174 (Fab, V domains shown, not shown: small tags and cut ends)
VH: EVQLVESGGDLVKPGGSLRLSCVASGFTFRDYAMTWVRQAPGKGLQWVSLINGSGGKTYYADAVKGRFTISRDNAKNTLYLQMNSLRAEDTAVYYCAVDRLTKTIRPQYYGLWVWGQGTLVTVSS
VL: DIVMTQTPLSLSVSPGETASISCRSSQSLTYSIGYNYLDWYLQKPGQSPQGLIYLGHKRASGVPDRFSGSGSGTDFTLRISRVEANDTGVYYCMQGLQSPLSFGQGTKLEIKR
B5: AHF21187 (Fab, V domains shown, not shown: small tags and cut ends)
VH: EVQLVESGGDLVKPGGSLRLSCVASGFTFRDYAMTWVRQAPGKGLQWVSLINGSGGKTYYADAVKGRFTISRDNAKNTLYLQMNSLRAEDTAVYYCAVDRKTKTIRPQYYGLWVWGQGTLVTVSS
VL: DIVMTQTPLSLSVSPGETASISCRSSQSLTYSIGYNYLDWYLQKPGQSPQGLIYLGHKRASGVPDRFSGSGSGTDFTLRISRVEANDTGVYYCMQGLQSPLGFGQGTKLEIKR
B6: AHF21177 (Fab, V domains shown, not shown: small tags and cut ends)
VH: EVQLVESGGDLVKPGGSLRLSCVASGFTFRDYAMTWVRQAPGKGLQWVSLINGSGGKTYYADAVKGRFTISRDNAKNTLYLQMNSLRAEDTAVYYCAVDRLTKTIRPQYYGLWVWGQGTLVTVSS
VL: DIVMTQTPLSLSVSPGETASISCRSSQSLTYSIGYNYLDWYLQKPGQSPQGLIYLGSKRASGVPDRFSGSGSGTDFTLRISRVEANDTGVYYCMQGLQSPLGFGQGTKLEIKR
B7: AHF21201 (Fab, V domains shown, not shown: small tags and cut ends)
VH: EVQLVESGGDLVKPGGSLRLSCVASGFTFRDYAMTWVRQAPGKGLQWVSLINGSGGKTYYADAVKGRFTISRDNAKNTLYLQMNSLRAEDTAVYYCAVDRLTKTIRPQYYGLWHWGQGTLVTVSS
VL: DIVMTQTPLSLSVSPGETASISCRSSQSLLYSIGYNYLDWYLQKPGQSPQGLIYLGHKRASGVPDRFSGSGSGTDFTLRISRVEANDTGVYYCMQGLQSPLGFGQGTKLEIKR
B8: AHF21186 (Fab, V domains shown, not shown: small tags and cut ends)
VH: EVQLVESGGDLVKPGGSLRLSCVASGFTFRDYAMTWVRQAPGKGLQWVSLINGSGGKTYYADAVKGRFTISRDNAKNTLYLQMNSLRAEDTAVYYCAVDRLTKTIRPQYYGLWHWGQGTLVTVSS
VL: DIVMTQTPLSLSVSPGETASISCRSSQSLLYSIGYNYLDWYLQKPGQSPQGLIYLGHKRASGVPDRFSGSGSGTDFTLRISRVEANDTGVYYCMQGLQSPLTFGQGTKLEIKR
B9: AHF21191 (Fab, V domains shown, not shown: small tags and cut ends)
VH: EVQLVESGGDLVKPGGSLRLSCVASGFTFRDYAMTWVRQAPGKGLQWVSLINGSGGKTYYADAVKGRFTISRDNAKNTLYLQMNSLRAEDTAVYYCAVDRLTKTIRPQYYGLWHWGQGTLVTVSS
VL: DIVMTQTPLSLSVSPGETASISCRSSQSLTYSIGYNYLDWYLQKPGQSPQGLIYLGSKRASGVPDRFSGSGSGTDFTLRISRVEANDTGVYYCMQGLQSPLGFGQGTKLEIKR
B10: AHF21199 (Fab, V domains shown, not shown: small tags and cut ends)
VH: EVQLVESGGDLVKPGGSLRLSCVASGFTFRDYAMTWVRQAPGKGLQWVSLINGSGGKTYYADAVKGRFTISRDNAKNTLYLQMNSLRAEDTAVYYCAVDRLTKTIRPQYYGLWVWGQGTLVTVSS
VL: DIVMTQTPLSLSVSPGETASISCRSSQSLTYSIGYNYLDWYLQKPGQSPQGLIYLGHKRASGVPDRFSGSGSGTDFTLRISRVEANDTGVYYCMQGLQSPLGFGQGTKLEIKR
B11: AHF21182 (Fab, V domains shown, not shown: small tags and cut ends)
VH: EVQLVESGGDLVKPGGSLRLSCVASGFTFRDYAMTWVRQAPGKGLQWVSLINGSGGKTYYADAVKGRFTISRDNAKNTLYLQMNSLRAEDTAVYYCAVDRLTKTIRPQYYGLWHWGQGTLVTVSS
VL: DIVMTQTPLSLSVSPGETASISCRSSQSLTYSIGYNYLDWYLQKPGQSPQGLIYLGHKRASGVPDRFSGSGSGTDFTLRISRVEANDTGVYYCMQGLQSPLLFGQGTKLEIKR
B12: AHF21184 (Fab, V domains shown, not shown: small tags and cut ends)
VH: EVQLVESGGDLVKPGGSLRLSCVASGFTFRDYAMTWVRQAPGKGLQWVSLISGSGGKTYYADAVKGRFTISRDNAKNTLYLQMNSLRAEDTAVYYCAVDRLTKTIRPQYYGLWHWGQGTLVTVSS
VL: DIVMTQTPLSLSVSPGETASISCRSSQSLLYSIGYNYLDWYLQKPGQSPQGLIYLGSKRASGVPDRFSGSGSGTDFTLRISRVEANDTGVYYCMQGLQSPLSFGQGTKLEIKR
B13: AHF21176 (Fab, V domains shown, not shown: small tags and cut ends)
VH: EVQLVESGGDLVKPGGSLRLSCVASGFTFRDYAMTWVRQAPGKGLQWVSLINGSGGKTYYADAVKGRFTISRDNAKNTLYLQMNSLRAEDTAVYYCAVDRKTKTIRPQYYGLWHWGQGTLVTVSS
VL: DIVMTQTPLSLSVSPGETASISCRSSQSLTYSIGYNYLDWYLQKPGQSPQGLIYLGHKRASGVPDRFSGSGSGTDFTLRISRVEANDTGVYYCMQGLQSPLGFGQGTKLEIKR
B14: AHF21180 (Fab, V domains shown, not shown: small tags and cut ends)
VH: EVQLVESGGDLVKPGGSLRLSCVASGFTFRDYAMTWVRQAPGKGLQWVSLINGSGGKTYYADAVKGRFTISRDNAKNTLYLQMNSLRAEDTAVYYCAVDRKTKTIRPQYYGLWHWGQGTLVTVSS
VL: DIVMTQTPLSLSVSPGETASISCRSSQSLTYSIGYNYLDWYLQKPGQSPQGLIYLGSKRASGVPDRFSGSGSGTDFTLRISRVEANDTGVYYCMQPLQSPLTFGQGTKLEIKR
B15: AHF21195 (Fab, V domains shown, not shown: small tags and cut ends)
VH: EVQLVESGGDLVKPGGSLRLSCVASGFTFRDYAMTWVRQAPGKGLQWVSLINGSGGKTYYADAVKGRFTISRDNAKNTLYLQMNSLRAEDTAVYYCAVDRKTKTIRPQYYGLWVWGQGTLVTVSS
VL: DIVMTQTPLSLSVSPGETASISCRSSQSLLYSIGYNYLDWYLQKPGQSPQGLIYLGSKRASGVPDRFSGSGSGTDFTLRISRVEANDTGVYYCMQGLQSPLSFGQGTKLEIKR
B16: AHF21194 (Fab, V domains shown, not shown: small tags and cut ends)
VH: EVQLVESGGDLVKPGGSLRLSCVASGFTFRDYAMTWVRQAPGKGLQWVSLINGSGGKTYYADAVKGRFTISRDNAKNTLYLQMNSLRAEDTAVYYCAVDRLTKTIRPQYYGLWVWGQGTLVTVSS
VL: DIVMTQTPLSLSVSPGETASISCRSSQSLLYSIGYNYLDWYLQKPGQSPQGLIYLGSKRASGVPDRFSGSGSGTDFTLRISRVEANDTGVYYCMQGLQSPLSFGQGTKLEIKR
B17: AHF21190 (Fab, V domains shown, not shown: small tags and cut ends)
VH: EVQLVESGGDLVKPGGSLRLSCVASGFTFRDYAMTWVRQAPGKGLQWVSLINGSGGKTYYADAVKGRFTISRDNAKNTLYLQMNSLRAEDTAVYYCAVDRLTKTIRPQYYGLWVWGQGTLVTVSS
VL: DIVMTQTPLSLSVSPGETASISCRSSQSLLYSIGYNYLDWYLQKPGQSPQGLIYLGHKRASGVPDRFSGSGSGTDFTLRISRVEANDTGVYYCMQGLQSPLSFGQGTKLEIKR
B18: AHF21200 (Fab, V domains shown, not shown: small tags and cut ends)
VH: EVQLVESGGDLVKPGGSLRLSCVASGFTFRDYAMTWVRQAPGKGLQWVSLINGSGGKTYYADAVKGRFTISRDNAKNTLYLQMNSLRAEDTAVYYCAVDRKTKTIRPQYYGLWVWGQGTLVTVSS
VL: DIVMTQTPLSLSVSPGETASISCRSSQSLTYSIGYNYLDWYLQKPGQSPQGLIYLGSKRASGVPDRFSGSGSGTDFTLRISRVEANDTGVYYCMQPLQSPLSFGQGTKLEIKR

The test concerns the target canine IL-4RA (construct not given) (canine). The experiment in a line: SPR, combinatorial Fab-SASA clone. For orientation: In SPR one partner is held on a chip, and binding of the other changes the refractive index at the surface.
In general, Kd refers to the free concentration of one partner at which half of the binding sites on the other are occupied at equilibrium, for simple one-to-one binding. Usually koff stands for the first-order rate constant of dissociation. What is called kon is a measure of how fast the partners come together. As to B1, the Kd amounted to 606 pM, the koff came out at 9.69e-05 s⁻¹ and the association rate constant (kon) turned out to be 160000 M⁻¹ s⁻¹.

B2: the Kd is 466 pM, the koff turned out to be 8.27e-05 s⁻¹ and the kon amounted to 178000 M⁻¹ s⁻¹.

Regarding B3, the Kd came to 857 pM, the dissociation rate constant (koff) worked out at 0.000278 s⁻¹ and the kon stood at 325000 M⁻¹ s⁻¹.

As to B4, the Kd amounted to 521 pM, the koff worked out at 9.58e-05 s⁻¹ and the kon worked out at 184000 M⁻¹ s⁻¹.

Turning to B5, the equilibrium dissociation constant (Kd) stood at 769 pM, the koff stood at 0.000132 s⁻¹ and the kon stood at 172000 M⁻¹ s⁻¹.

On to B6, for which the Kd was 561 pM, the dissociation rate constant (koff) was determined as 9.52e-05 s⁻¹ and the on-rate constant (kon) was 170000 M⁻¹ s⁻¹.

For the molecule B7, the Kd was determined as 440 pM, the koff was determined as 0.000151 s⁻¹ and the association rate constant (kon) amounted to 344000 M⁻¹ s⁻¹.

Consider B8, for which the dissociation constant (Kd) turned out to be 485 pM, the koff stood at 0.000148 s⁻¹ and the kon is 306000 M⁻¹ s⁻¹.

In the case of B9, the Kd came out at 366 pM, the koff was 9.48e-05 s⁻¹ and the association rate constant (kon) came out at 259000 M⁻¹ s⁻¹.

B10: the Kd is 395 pM, the koff stood at 8.18e-05 s⁻¹ and the kon came out at 207000 M⁻¹ s⁻¹.

B11: the dissociation constant (Kd) stood at 442 pM, the dissociation rate constant (koff) was found to be 0.000126 s⁻¹ and the association rate constant (kon) was determined as 286000 M⁻¹ s⁻¹.

Take B12: the equilibrium dissociation constant (Kd) is 1890 pM, the koff stood at 0.000543 s⁻¹ and the kon amounted to 287000 M⁻¹ s⁻¹.

Consider B13, for which the Kd is 309 pM, the koff was found to be 9.11e-05 s⁻¹ and the kon turned out to be 295000 M⁻¹ s⁻¹.

For the molecule B14, the equilibrium dissociation constant (Kd) came out at 259 pM, the koff is 5.68e-05 s⁻¹ and the association rate constant (kon) came out at 219000 M⁻¹ s⁻¹.

Turning to B15, the Kd was found to be 992 pM, the koff turned out to be 0.000192 s⁻¹ and the kon is 193000 M⁻¹ s⁻¹.

Take B16: the Kd was 627 pM, the dissociation rate constant (koff) was 0.000133 s⁻¹ and the kon turned out to be 212000 M⁻¹ s⁻¹.

As for B17, the equilibrium dissociation constant (Kd) stood at 680 pM, the koff came to 0.000152 s⁻¹ and the kon was found to be 223000 M⁻¹ s⁻¹.

Take B18: the equilibrium dissociation constant (Kd) stood at 875 pM, the off-rate constant (koff) came out at 0.000127 s⁻¹ and the kon amounted to 146000 M⁻¹ s⁻¹.
